ChEMBL document CHEMBL4602687, “Dual Binding to Orthosteric and Allosteric Sites Enhances the Anticancer Activity of a TRAP1-Targeting Drug” (J Med Chem, 2020)

What was measured:
[1] = substrate: Nc1ncnc2c1nc(Sc1cc3c(cc1I)OCO3)n2CCCCCCCCCC[P+](c1ccccc1)(c1ccccc1)c1ccccc1; assay: (§1) Allosteric modulation of recombinant wild-type human TRAP1 ATPase activity expressed in Escherichia coli BL21 (DE3) assessed as substrate Kcat at 5 uM preincubated for 0.5 hrs followed by varying levels of ATP addition and measured after 3 hrs using PiColorLock Gold reagent by colorimetric assay-based Lineweaver-Burk plot analysis (reference value: 0.87 +/- 0.01 10^-2 secs)
[2] = substrate: Nc1ncnc2c1nc(Sc1cc3c(cc1I)OCO3)n2CCCCCCCCCC[P+](c1ccccc1)(c1ccccc1)c1ccccc1; assay: as §1, with “Km” for “Kcat”, “84.42” for “0.87”, “3.84 uM)” for “0.01 10^-2 secs)”
[3] = compound: CC(C)NCCCn1c(Sc2cc3c(cc2I)OCO3)nc2c(N)ncnc21; assay: (§2) Competitive inhibition of recombinant wild-type human TRAP1 ATPase activity expressed in Escherichia coli BL21 (DE3) assessed as ratio of substrate Kcat to Km at 5 uM preincubated for 0.5 hrs followed by varying levels of ATP addition and measured after 3 hrs using PiColorLock Gold reagent by colorimetric assay-based Lineweaver-Burk plot analysis (reference value: 10.3 +/- 0.54 10^-5 /s/uM)
[4] = substrate: Nc1ncnc2c1nc(Sc1cc3c(cc1I)OCO3)n2CCCCCCCCCC[P+](c1ccccc1)(c1ccccc1)c1ccccc1; assay: as §2, with “Allosteric modulation” for “Competitive inhibition”
[5] = compound: CC(C)NCCCn1c(Sc2cc3c(cc2I)OCO3)nc2c(N)ncnc21; assay: as §1, with “Competitive inhibition” for “Allosteric modulation”
[6] = compound: CC(C)NCCCn1c(Sc2cc3c(cc2I)OCO3)nc2c(N)ncnc21; assay: as §2, with “as” for “as ratio of”, “substrate” for “substrate Kcat to”, “84.42” for “10.3”, “3.84 uM)” for “0.54 10^-5 /s/uM)”

B1: Heat shock protein 75 kDa, mitochondrial (Homo sapiens), Q12931 (protein)
chain: MARELRALLLWGRRLRPLLRAPALAAVPGGKPILCPRRTTAQLGPRRNPAWSLQAGRLFSTQTAEDKEEPLHSIISSTESVQGSTSKHEFQAETKKLLDIVARSLYSEKEVFIRELISNASDALEKLRHKLVSDGQALPEMEIHLQTNAEKGTITIQDTGIGMTQEELVSNLGTIARSGSKAFLDALQNQAEASSKIIGQFGVGFYSAFMVADRVEVYSRSAAPGSLGYQWLSDGSGVFEIAEASGVRTGTKIIIHLKSDCKEFSSEARVRDVVTKYSNFVSFPLYLNGRRMNTLQAIWMMDPKDVREWQHEEFYRYVAQAHDKPRYTLHYKTDAPLNIRSIFYVPDMKPSMFDVSRELGSSVALYSRKVLIQTKATDILPKWLRFIRGVVDSEDIPLNLSRELLQESALIRKLRDVLQQRLIKFFIDQSKKDAEKYAKFFEDYGLFMREGIVTATEQEVKEDIAKLLRYESSALPSGQLTSLSEYASRMRAGTRNIYYLCAPNRHLAEHSPYYEAMKKKDTEVLFCFEQFDELTLLHLREFDKKKLISVETDIVVDHYKEEKFEDRSPAAECLSEKETEELMAWMRNVLGSRVTNVKVTLRLDTHPAMVTVLEMGAARHFLRMQQLAKTQEERAQLLQPTLEINPRHALIKKLNQLRASEPGLAQLLVDQIYENAMIAAGLVDDPRAMVGRLNELLVKALERH
**Q.** How did the kcat [1] turn out when B1 was run?
**A.** 2.51 ×10⁻² /s

**Q.** What about the Km [2] of the same protein?
**A.** 506 µM

**Q.** And the kcat/Km [3]?
**A.** 0.76 ×10⁻⁵ /s/µM

**Q.** And the kcat/Km [4]?
**A.** 4.99 ×10⁻⁵ /s/µM

**Q.** What about the kcat [5] of the same protein?
**A.** 0.8 ×10⁻² /s

**Q.** What about the Km [6] of the same protein?
**A.** 1050 µM
